Ends that are not written are not given here. Alexa Fluor 488 = fluorescent dye attached through a C5 maleimide linker to the added cysteine
Key:
[1] = molecular target: the molecule itself; assay: cross-linking; disulfide cross-linking through the C-terminal Cys; unlabeled TMJM in 14:1 PC or 22:1 PC liposomes ± 3% PIP2, lipid-to-peptide ratio 300:1; 19.3 mM HEPES, 1 mM EGTA, shaken 3 h at room temperature (19-21 °C); non-reducing SDS-PAGE (16% tricine gel), silver stain
[2] = molecular target: the molecule itself; assay: single-molecule photobleaching (TIRF) in SMALPs; Alexa Fluor 488-TMJM in 22:1 PC or 14:1 PC SMALPs with 3% biotin-PE, ± 3% PIP2 or 10% POPS, ± 1 mM Ca2+; lipid-to-peptide ratio 300:1; SMALPs (20 to 30 nM peptide) immobilised on PEGylated slides via biotin-streptavidin; SMALP buffer 19.3 mM HEPES, 150 mM NaCl, 1 mM EGTA; photobleaching steps counted for each SMALP

| Protein | binding result [1] | stoichiometry N [2] |
| --- | --- | --- |
| GSGNLAVIGGVAVGVVLLLVLAGVGFFIHRRRKCWN (EphA2 residues 531 to 563: a short stretch of extracellular residues, the TMD and the first five JM residues (HRRRK); added residues at the C terminus; the free cysteine forms the disulfide in the cross-linking experiment; Free Cys at the JM end; also called unlabeled TMJM; source: synthetic peptide (F-moc chemistry, Thermo Fisher)) [TMJM peptide (unlabeled)] | binds |  |
| GSGNLAVIGGVAVGVVLLLVLAGVGFFIHRRRKC(Alexa Fluor 488)WN (also: Alexa Fluor 488 (C5 maleimide) on the added C-terminal cysteine, EphA2 residues 531 to 563: a short stretch of extracellular residues, the TMD and the first five JM residues (HRRRK); added residues at the C terminus: a cysteine for dye conjugation and a tryptophan as fluorescent reporter; Reconstituted in 14:1 PC or 22:1 PC bilayers with 3% biotin-PE and solubilised as SMALPs; also called Alexa Fluor 488 labeled TMJM peptide; source: synthetic peptide (F-moc …)) [TMJM peptide labeled with Alexa Fluor 488] |  | 2 |

Source: publication PMC7900517, “PIP2 promotes conformation-specific dimerization of the EphA2 membrane region” (The Journal of Biological Chemistry, 2020)
